{
  "source": "paper doi:10.1101/2025.05.07.652675",
  "target": "ZapC^F30D and ZapC^K94D",
  "assay": "BLI",
  "note": "“And” between values parts separate entries of the source, which are not always exact repeats. Identical values can stand only once.",
  "data": [
    {"substance": "FtsZ (wild type, untagged) (from UniProt P0A9A6 1-383) (natural protein)", "values": [
      {"measurement": "binding affinity relative to wild-type ZapC (times lower)", "result": "5 times and 7 times"}
    ]}
  ]
}
